B1: H2-Kb / Ed33 (parent complex)
chain 1: SQLAEENSWALSVHEGESVTVNCSYKTSITALQWYRQKSGKGPAQLILIRSNEREKRNGRLRATLDTSSQSSSLSITATRCEDTAVYFCATDHNNAGAKLTFGGGTRLTVRP
chain 2: DAGVTQTPRHEVAEKGQTIILKCEPVSGHNDLFWYRQTKIQGLELLSYFRSKSLMEDGGAFKDRFKAEMLNSSFSTLKIQPTEPKDSAVYLCASSLYTNQAPLFGEGTRLSVL
chain 3: not shown
chain 4: IQKTPQIQVYSRHPPENGKPNILNCYVTQFHPPHIEIQMLKNGKKIPKVEMSDMSFSKDWSFYILAHTEFTPTETDTYACRVKHDSMAEPKTVYWDRDM
chain 5: SIINFEKL
B2: H2-Kb / Ed39 (parent complex)
chain 1: GEQVEQRPPHLSVREGDSAVIICTYTDPNSYYFFWYKQEPGAGLQLLMKVFSSTEINEGQGFTVLLNKKDKQLSLNLTAAHPGDSAVYFCATMSNYNVLYFGSGTKLTVEP
chain 2: GALVYQYPRRTICKSGTSMRMECQAVGFQATSVAWYRQSPQKTFELIALSTVNSAIKYEQNFTQEKFPISHPNLSFSSMTVLNAYLEDRGLYLCGARDGSYEQYFGPGTRLTVL
chain 3: not shown
chain 4: B1 chain 4
chain 5: SIINFEKL
Also: test concentration or dose not given here.

Variants of: B1
Test: % of reporter cells activated (NFAT-GFP), raw
chain 5 K7T gave a ratio to parent of 0.0585. In the case of chain 5 K7R, the ratio to parent is reported as 0.318. For chain 5 K7G, the ratio to parent was 0.204. For chain 5 K7C, the ratio to parent was 0.063. With chain 5 K7F the ratio to parent was 0.0757. chain 5 K7Y was tested, and the ratio to parent was 0.157. In the case of chain 5 K7S, the ratio to parent is reported as 0.754. In the case of chain 5 K7I, the ratio to parent is reported as 0.018. chain 5 K7W showed a ratio to parent of 0.74. chain 5 K7P showed a ratio to parent of 0.372. With chain 5 K7E the ratio to parent was 0.0117. chain 5 K7N gave a ratio to parent of 0.216. chain 5 K7V was tested, and the ratio to parent was 0.427. chain 5 K7H was tested, and the ratio to parent was 0.0435. In the case of chain 5 K7A, the ratio to parent is reported as 0.227. With chain 5 K7M the ratio to parent was 0.0938. In the case of chain 5 K7Q, the ratio to parent is reported as 0.0157. chain 5 I3W showed a ratio to parent of 0.836. chain 5 I3G showed a ratio to parent of 1.03. In the case of chain 5 I3H, the ratio to parent is reported as 0.895. In the case of chain 5 I3K, the ratio to parent is reported as 0.656. Variant chain 5 I3L has a ratio to parent of 0.984. With chain 5 I3T the ratio to parent was 1.04. In the case of chain 5 I3S, the ratio to parent is reported as 1.01. Variant chain 5 I3N has a ratio to parent of 0.932. chain 5 I3R was tested, and the ratio to parent was 0.581. chain 5 I3V gave a ratio to parent of 0.933. chain 5 I3P gave a ratio to parent of 1.09. For chain 5 I3Y, the ratio to parent was 0.0463. chain 5 I3F was tested, and the ratio to parent was 0.0275. chain 5 I3E showed a ratio to parent of 1.06. With chain 5 I3D the ratio to parent was 0.634. Variant chain 5 I3M has a ratio to parent of 1.07. chain 5 I3Q showed a ratio to parent of 1.08. Variant chain 5 S1V has a ratio to parent of 0.349. chain 5 S1D gave a ratio to parent of 1.05. For chain 5 S1Y, the ratio to parent was 0.414. chain 5 S1R gave a ratio to parent of 0.392. chain 5 S1W gave a ratio to parent of 0.182. With chain 5 S1A the ratio to parent was 0.461. chain 5 S1K was tested, and the ratio to parent was 0.121. With chain 5 S1P the ratio to parent was 0.115. Work on chain 5 S1L yielded a ratio to parent of 0.0492. In the case of chain 5 S1F, the ratio to parent is reported as 0.3. chain 5 S1E was tested, and the ratio to parent was 1.02. chain 5 S1I was tested, and the ratio to parent was 0.0715. In the case of chain 5 S1H, the ratio to parent is reported as 0.634. chain 5 S1N showed a ratio to parent of 0.173. For chain 5 S1G, the ratio to parent was 0.48. Variant chain 5 S1Q has a ratio to parent of 0.91. chain 5 S1C gave a ratio to parent of 0.295. Variant chain 5 S1M has a ratio to parent of 0.675. Variant chain 5 L8Q has a ratio to parent of 0.9. Variant chain 5 L8C has a ratio to parent of 0.824. Variant chain 5 L8N has a ratio to parent of 0.905. In the case of chain 5 L8K, the ratio to parent is reported as 0.941. Work on chain 5 L8P yielded a ratio to parent of 0.846. In the case of chain 5 L8H, the ratio to parent is reported as 0.968. chain 5 L8M showed a ratio to parent of 0.936. chain 5 L8R gave a ratio to parent of 0.873. chain 5 L8D was tested, and the ratio to parent was 0.731. chain 5 L8F showed a ratio to parent of 0.941. In the case of chain 5 L8Y, the ratio to parent is reported as 1.01. In the case of chain 5 L8E, the ratio to parent is reported as 0.8. chain 5 L8W gave a ratio to parent of 0.881. For chain 5 L8S, the ratio to parent was 0.84. In the case of chain 5 L8I, the ratio to parent is reported as 0.988. Work on chain 5 L8A yielded a ratio to parent of 0.913. chain 5 F5S was tested, and the ratio to parent was 0.958. chain 5 F5V gave a ratio to parent of 0.917. In the case of chain 5 F5I, the ratio to parent is reported as 0.655. Work on chain 5 F5N yielded a ratio to parent of 0.876. In the case of chain 5 F5E, the ratio to parent is reported as 0.625. chain 5 F5W gave a ratio to parent of 0.968. chain 5 F5C gave a ratio to parent of 1.05. With chain 5 F5G the ratio to parent was 0.844. Variant chain 5 F5D has a ratio to parent of 0.85. In the case of chain 5 F5H, the ratio to parent is reported as 0.911. With chain 5 F5A the ratio to parent was 1.1. In the case of chain 5 F5R, the ratio to parent is reported as 0.982. For chain 5 F5Q, the ratio to parent was 1.01. chain 5 F5P was tested, and the ratio to parent was 0.988. With chain 5 F5K the ratio to parent was 0.862. Work on chain 5 F5T yielded a ratio to parent of 1.08. For chain 5 I2P, the ratio to parent was 1.03. In the case of chain 5 I2F, the ratio to parent is reported as 0.774. In the case of chain 5 I2K, the ratio to parent is reported as 1.01. chain 5 I2R was tested, and the ratio to parent was 0.807. In the case of chain 5 I2H, the ratio to parent is reported as 0.835. chain 5 I2G was tested, and the ratio to parent was 0.456. chain 5 I2L showed a ratio to parent of 1.05. Work on chain 5 I2Q yielded a ratio to parent of 0.918. chain 5 I2N showed a ratio to parent of 1.01. Work on chain 5 I2C yielded a ratio to parent of 0.918. chain 5 I2T gave a ratio to parent of 0.981. Work on chain 5 I2E yielded a ratio to parent of 1.03. chain 5 I2V showed a ratio to parent of 1.04. Variant chain 5 I2Y has a ratio to parent of 0.715. chain 5 I2D showed a ratio to parent of 0.897. chain 5 I2A was tested, and the ratio to parent was 0.885. For chain 5 E6P, the ratio to parent was 0.0303. In the case of chain 5 E6I, the ratio to parent is reported as 0.00689. Work on chain 5 E6Y yielded a ratio to parent of 0.182. chain 5 E6C gave a ratio to parent of 0.0452. Variant chain 5 E6R has a ratio to parent of 0.00434. Variant chain 5 E6K has a ratio to parent of 0.425. chain 5 E6F showed a ratio to parent of 0.101. With chain 5 E6N the ratio to parent was 0.00413. For chain 5 E6W, the ratio to parent was 0.0137. In the case of chain 5 E6H, the ratio to parent is reported as 0.223. chain 5 E6M gave a ratio to parent of 0.0967. Work on chain 5 E6G yielded a ratio to parent of 0.513. With chain 5 E6D the ratio to parent was 0.113. chain 5 E6T gave a ratio to parent of 0.0145. With chain 5 E6V the ratio to parent was 0.0218. Variant chain 5 E6A has a ratio to parent of 0.055. chain 5 E6Q gave a ratio to parent of 0.218. With chain 5 N4F the ratio to parent was 0.0234. chain 5 N4S was tested, and the ratio to parent was 0.00273. With chain 5 N4Q the ratio to parent was 0.00449. Variant chain 5 N4G has a ratio to parent of 0.294. chain 5 N4T gave a ratio to parent of 0.0148. chain 5 N4H gave a ratio to parent of 0.134. chain 5 N4P was tested, and the ratio to parent was 0.000438. For chain 5 N4A, the ratio to parent was 0.00624. With chain 5 N4C the ratio to parent was 0.0904. chain 5 N4K was tested, and the ratio to parent was 0.41. Work on chain 5 N4R yielded a ratio to parent of 0.168. With chain 5 N4E the ratio to parent was 0.246. chain 5 N4W was tested, and the ratio to parent was 0.0116. Work on chain 5 N4D yielded a ratio to parent of 0.135. With chain 5 N4L the ratio to parent was 0.428.

Variants of: B2
Test: % of reporter cells activated (NFAT-GFP), raw
Work on chain 5 L8C yielded a ratio to parent of 0.483. chain 5 L8H showed a ratio to parent of 0.788. chain 5 E6K was tested, and the ratio to parent was 0.308. chain 5 S1Y was tested, and the ratio to parent was 0.351. chain 5 S1R showed a ratio to parent of 0.0616. In the case of chain 5 I2P, the ratio to parent is reported as 0.58. chain 5 I2L was tested, and the ratio to parent was 1.03. Work on chain 5 I2C yielded a ratio to parent of 0.926. With chain 5 F5G the ratio to parent was 0.454. Variant chain 5 F5C has a ratio to parent of 0.689. In the case of chain 5 I3Q, the ratio to parent is reported as 0.3. chain 5 I3W was tested, and the ratio to parent was 0.472. chain 5 K7G gave a ratio to parent of 0.0989. chain 5 K7E was tested, and the ratio to parent was 0.00639. In the case of chain 5 K7N, the ratio to parent is reported as 0.0309. Variant chain 5 K7T has a ratio to parent of 0.359. For chain 5 N4I, the ratio to parent was 0.00838. For chain 5 N4Q, the ratio to parent was 0.00338.

— paper PMC11480844 (2024)
